Test system: peptide library, one residue held at a place counted from the Y acceptor
Test: relative phosphorylation of the sub-library (ratio to the mean residue at this position); higher = residue favoured
In short: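 Within 384-well plates, purified recombinant kinases phosphorylated biotinylated Tyr-centred peptide library mixtures over 90 min using 50 μM ATP spiked with γ-32P-ATP; each mixture fixed one residue at one position from −5 to +5. Streptavidin membrane capture, rinsing, phosphorimaging and ImageQuant gave the intensities. These were normalized per position to the sum of the 18 randomized residues (16 for the Ser/Thr-free library) and multiplied by that number.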

EPHA1, construct: aa568-end, human, sequence (P21709 568-976, looked up): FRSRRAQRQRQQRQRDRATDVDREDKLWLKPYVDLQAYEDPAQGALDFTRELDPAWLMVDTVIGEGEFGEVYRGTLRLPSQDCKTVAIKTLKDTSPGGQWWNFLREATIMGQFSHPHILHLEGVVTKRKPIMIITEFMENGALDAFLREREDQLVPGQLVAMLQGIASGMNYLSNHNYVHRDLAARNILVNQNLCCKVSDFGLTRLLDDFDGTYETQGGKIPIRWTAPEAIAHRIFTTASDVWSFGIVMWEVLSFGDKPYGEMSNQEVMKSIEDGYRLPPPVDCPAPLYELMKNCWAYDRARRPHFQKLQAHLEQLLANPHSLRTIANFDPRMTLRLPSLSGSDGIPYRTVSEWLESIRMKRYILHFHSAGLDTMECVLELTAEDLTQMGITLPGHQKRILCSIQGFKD

EGFR, construct: aa668-end, human (from UniProt P00533)
relative phosphorylation
Conditions	at +1	at +2	at +3	at +4	at +5	at -1	at -2	at -3	at -4	at -5
A fixed	0.795	0.684	0.702	0.943	1.08	0.639	1.08	0.898	1.14	0.991
D fixed	0.496	1.29	1.17	1.09	1.12	2.93	1.74	2.12	1.58	1.34
E fixed	0.948	1.95	1.08	1.42	1.06	2.35	1.92	2.39	1.59	1.2
F fixed	2.04	1.23	1.06	0.967	1.06	0.716	0.637	0.848	1.01	0.989
G fixed	0.246	0.422	0.884	1.19	1.11	0.487	1.09	1.03	1.1	1.24
H fixed	1.4	0.836	0.882	1.08	0.904	0.988	0.813	0.949	0.77	0.989
I fixed	1.85	1.12	1.72	0.823	0.785	1.77	0.862	0.601	0.801	0.955
K fixed	0.26	0.498	0.34	0.895	0.935	0.315	0.605	0.561	0.789	0.794
L fixed	0.988	0.964	1.51	0.756	0.918	1.07	0.831	0.748	0.992	1
M fixed	0.826	1.03	1.02	1.11	0.902	0.757	0.821	0.776	0.855	0.96
N fixed	0.383	1.01	0.61	0.783	0.881	1.09	1.06	1.2	0.917	1.1
P fixed	0.313	0.623	0.824	1.1	1.66	0.721	1.11	0.934	1.1	1.07
Q fixed	0.804	0.905	0.941	0.969	0.827	0.768	1.13	0.881	1.08	0.954
R fixed	0.299	0.685	0.665	0.978	0.825	0.317	0.575	0.586	0.763	0.87
S fixed	0.762	0.843	0.79	0.931	1.14	0.546	1.13	0.995	0.827	0.88
T fixed	1.09	0.907	0.956	0.964	0.913	0.784	0.923	0.935	0.672	0.802
V fixed	2.64	1.05	1.47	0.88	0.899	1.16	0.979	0.7	0.825	0.851
W fixed	1.85	1.96	1.37	1.12	0.981	0.598	0.708	0.843	1.19	1
pThr fixed	1.41	1.5	0.796	1.02	1.08	2.05	1.57	1.61	1.41	1.2
pTyr fixed	11.9	5.31	0.921	1.45	1.01	5.3	2.06	2.19	2.18	1.69

EPHA1, construct: aa568-end, human (from UniProt P21709)
relative phosphorylation
Conditions	at +1	at +2	at +3	at +4	at +5	at -1	at -2	at -3	at -4	at -5
A fixed	1.63	0.704	0.7	0.747	1.08	0.615	1.22	0.904	1.25	1.1
D fixed	0.645	0.963	0.21	0.562	0.699	0.705	0.891	1.06	0.864	0.752
E fixed	1.87	1.03	0.191	0.665	0.616	0.52	1.04	1.18	1.11	0.59
F fixed	0.853	1.68	1.4	1.27	1.17	1.37	0.531	1.16	0.936	1.1
G fixed	0.729	0.307	0.486	1.21	1.21	0.23	1.38	1.07	1.47	1.26
H fixed	0.604	0.912	0.877	1.38	0.987	0.87	1.03	1.18	0.919	0.917
I fixed	1.41	0.997	2.57	0.732	0.92	2.74	0.716	0.784	0.853	0.941
K fixed	0.292	0.642	0.319	0.931	1.12	0.381	1	0.801	0.993	1.12
L fixed	1.15	1.18	2.29	0.816	0.955	2.38	0.789	0.803	1	1.07
M fixed	1.88	1.21	1.5	1.26	0.966	1.11	0.633	0.926	0.948	0.968
N fixed	0.276	1.17	0.385	0.726	0.773	1	1.11	1.16	0.852	0.937
P fixed	0.157	0.521	1.26	1.19	1.57	0.445	1.29	0.929	1.13	1.17
Q fixed	1.11	0.792	0.679	0.86	0.807	0.433	1.05	0.77	0.95	0.914
R fixed	0.477	1.06	0.696	1.47	1.13	0.587	1.36	1.07	1.23	1.26
S fixed	0.799	0.697	0.488	0.739	1	0.391	1.46	1.03	0.868	0.86
T fixed	0.823	0.867	0.576	0.813	0.9	1.19	0.845	0.917	0.666	0.725
V fixed	1.93	0.974	2.03	0.73	0.853	1.43	0.821	0.78	0.827	0.913
W fixed	1.36	2.3	1.36	1.89	1.24	1.61	0.821	1.48	1.14	1.4
pThr fixed	0.981	1.05	0.17	0.4	0.508	1.39	0.685	0.721	0.608	0.558
pTyr fixed	1.87	2.54	0.57	0.629	0.727	0.904	0.81	0.888	0.88	0.684

From the supplement of paper PMC11136658
